Experiments:
mesothelioma cell lines = experiment: Chemical screen, viability of mesothelioma cell lines by BAP1 mutation status; assay type: cell-based, Human; conditions: 6 day viability assay, 40 ng/ml rTRAIL
Description: FIG. 2A is a volcano plot showing drug-genome interactions in MPM. […] The Y-axis denotes adjusted p-Value, X-axis denotes effect size. Size of circle indicates number of mutant lines in cohort tested. […] Met 5a is a mesothelial normal control line. FIG. 2C is a scatter plot showing AUC following 6 day viability assay in response to 40 ng/ml rTRAIL (normalised to DMSO treated control) in cell lines discretized by BAP1 mutation status. […] Two-tailed t-test, p=0.015.
Manual “single dose” combination screening was undertaken using 96 well formats. Cells were plated on day 1 in previously optimized seeding densities in 180 μl if media. On day 2 20 μl of a 10× concentration of media from a stock of drugs was added. […]
A binary event matrix was compiled for the cell lines in the mesothelioma screen by aggregating copy number and exome data and this was used as input classifiers for genomic correlation. Data from this therapeutic screen was then analysed using a Multivariate Analysis of Variance (MANOVA) to annotate the sensitizing effect of genotype on dose response.
(§1) Adherent cell lines were seeded 24 hours before drugging. Cells were trypsinised and counted before seeding at the optimal density for the size of well (96 or 384) and duration of assay. […] Quantification of fluorescent signal was achieved using excitation/emission wavelength of 630/695 […].

RT4 = experiment: rTRAIL viability, bladder cancer cell line RT4; assay type: cell-based; conditions: nonsense mutation in BAP1
Text: (§2) FIG. 8A is a graph showing the effect of rTRAIL on the viability of various cancer cell lines. Bladder (RT4) and Breast (HCC1187) cancer cell lines with nonsense mutations in BAP1 show sensitivity to rTRAIL while renal cell cancer cell lines (769P & RCC10RGB) with missense mutation and wild-type renal (BB65RCC) and bladder cancer (SW1710) cell lines are resistant to TRAIL.

H2818 = experiment: rTRAIL response, viability assay, H2818; assay type: cell-based, Human; conditions: BAP1 Wild-type
Description: (§3) Manual “single dose” combination screening was undertaken using 96 well formats. Cells were plated on day 1 in previously optimized seeding densities in 180 μl if media. On day 2 20 μl of a 10× concentration of […] was added. Cells were then allowed to grow for 72 hrs or 6 days and fixed at the end of the assay. Drug wells were compared to DMSO treated control wells.
(§4) Single agent high throughput 5 point viability screening was undertaken in 384 well formats using robotic liquid handling with fixing with 4% paraformaldehyde and staining for viability with Syto60 nucleic acid dye (Invitrogen) (see below). Single agent dose response curves were derived for each library of 85-95 drugs according to the experiment used, and log IC50 or area under the curve (AUC) metrics were derived for each library compound in each cell line according to a previously derived formula [18].
as §1, with “assay. 72 hr after drug treatment cells were fixed with 4% paraformaldehyde for 30 minutes.” for “assay.”

HCC1187 = experiment: rTRAIL viability, breast cancer cell line HCC1187; assay type: cell-based; conditions: nonsense mutation in BAP1
Text: as §2

H226 = experiment: rTRAIL response, viability assay, H226; assay type: cell-based, Human; conditions: BAP1 Deletion, Homozygous
Description: as §3, §4
as §1, with “assay. 72 hr after drug treatment cells were fixed with 4% paraformaldehyde for 30 minutes.” for “assay.”

H2795 = experiment: rTRAIL response, viability assay, H2795; assay type: cell-based, Human; conditions: BAP1 Essential Splice, heterozygous
Description: as §3, §4
as §1, with “assay. 72 hr after drug treatment cells were fixed with 4% paraformaldehyde for 30 minutes.” for “assay.”

B1: rTRAIL: recombinant protein that activates the TRAIL pathway by binding to TRAIL-R1 (DR 4) and TRAIL-R2 (DR 5) (protein, UniProt P50591 1-281, looked up)
Tumor necrosis factor ligand …: MAMMEVQGGPSLGQTCVLIVIFTVLLQSLCVAVTYVYFTNELKQMQDKYSKSGIACFLKEDDSYWDPNDEESMNSPCWQVKWQLRQLVRKMILRTSEETISTVQEKQQNISPLVRERGPQRVAAHITGTRGRSNTLSSPNSKNEKALGRKINSWESSRSGHSFLSNLHLRNGELVIHEKGFYYIYSQTYFRFQEEIKENTKNDKQMVQYIYKYTSYPDPILLMKSARNSCWSKDAEYGLYSIYQGGIFELKENDRIFVSVTNEHLIDMDHEASFFGAFLVG
In the case of B1, the “sensitivity of BAP1 mutant cells compared with wild-type counterparts” value (mesothelioma cell lines) is reported as “significantly more sensitive”, the “response to rTRAIL (viability)” value (RT4) is reported as “sensitivity” and the rTRAIL response (H2818) is reported as “Resistant”. The “response to rTRAIL (viability)” value (HCC1187) was “sensitivity”, the rTRAIL response (H226) was “Sensitive” and the rTRAIL response (H2795) was “Sensitive*”.
